Reference: publication PMC5095173, “Disulfide-activated protein kinase G Iα regulates cardiac diastolic relaxation and fine-tunes the Frank–Starling response” (Nature Communications, 2016)

Columns and labels:
[1] = tested on: PKGIα (analogue-sensitive C42S/M438G), cGMP-activated; experiment: Chemical genetic phosphoproteomic screen, cGMP-activated PKGIα C42S/M438G versus unactivated control; type: biochemical, human PKGIα; substrates in rat heart homogenate; details: n=4
Description: (§1) We employed a chemical genetic method[18] to identify direct substrates of cGMP-activated PKGIα and disulfide bond-activated PKGIα in heart tissue. This method involves mutation of the ATP binding-site of the kinase of interest so that it can accept a ‘bulky' N6-alkylated ATP analogue for example, N6^−phenylethyl ATP. An oxygen atom on the γ phosphate is also replaced with a sulfur atom—giving an N6-alkylated ATPγS analogue—so that the mutant kinase catalyses the transfer of a thiophosphate group (–PO3S^3−) to its substrates instead of a phosphate. The thiophosphate group is nucleophilic, providing a basis for substrates of the analogue-sensitive kinase to be purified by a ‘covalent capture' protocol. LC–MS/MS allows identification of the substrate and localization of the phosphorylation site. Thiophosphorylated proteins can also be detected with a thiophosphate ester-specific antibody. Analogue-sensitive mutants of PKGIα and PKGIα C42S (which cannot form the activating intermolecular disulfide bond) were generated by mutating Met438 in the ATP-binding domain to Gly. This mutation was chosen based on a previous study where an analogue-sensitive mutant of the catalytic subunit of PKA—which shares sequence homology with PKGIα—was engineered. Detailed protocols are given below.
(§2) A pCDNA3 expression vector encoding human FLAG-tagged PKGIα (ref. [41]) underwent site-directed mutagenesis to generate constructs for untagged WT, C42S, M438G and C42S/M438G PKGIα. Mutations were introduced using the QuikChange II Site-Directed Mutagenesis Kit (Agilent) according to the manufacturer's instructions. Expression and purification of the PKGIα mutants was performed according to a published method[42] as follows: suspension FreeStyle 293-F cells (ThermoFisher Scientific) were transfected with the appropriate PKGIα construct using the stable cationic polymer polyethyleneimine (PEI) as a transfection reagent. After ∼72 h cells were harvested by centrifugation (400g; room temperature; 15 min), re-suspended in ice cold lysis buffer (25 mM sodium phosphate buffer pH 6.8; 10 mM ethylenediaminetetraacetic acid (EDTA); 100 mM NaCl; 10 mM benzamidine hydrochloride; and 10 mM dithiothreitol (DTT)) and frozen in liquid N2. Cells were lysed by three freeze (liquid N2)-thaw (37 °C) cycles and the lysate was clarified by centrifugation at 140,000g and 4 °C for 30 min. The soluble protein fraction was loaded onto a pre-equilibrated 8-(2-aminoethylamino)adenosine-3′, 5′-cyclic monophosphate column (8-AEA-cAMP agarose; BioLog, Germany) followed by washing with 20 column volumes of lysis buffer. The column was further washed with lysis buffer +3 M NaCl (5 column volumes) and PKGIα was then eluted with lysis buffer +150 mM NaCl and 500 μM cAMP. Removal of cAMP and buffer exchange was achieved by extensive dialysis against 25 mM sodium phosphate buffer pH 6.8, 2 mM EDTA and 100 mM NaCl. For ITC analysis, WT PKGIα was incubated with 10 mM lipoic acid for 2 h on ice to obtain ∼100% disulfide dimer (confirmed by SDS-PAGE). Oxidized WT or C42S PKGIα was further purified by size exclusion chromatography using a HiLoad 16/600 Superdex 200 pg column (GE Healthcare) with 50 mM sodium phosphate buffer pH 7.4 and 100 mM NaCl. Proteins were concentrated using Amicon Ultra centrifugal filter devices (Merck Millipore). DTT was absent in storage buffers so that the activating disulfide bond would not be reduced and so that the PKGIα M438G mutant would be oxidized to disulfide dimer in the presence of air (confirmed by SDS-PAGE). Protein concentration was determined by Pierce BCA assay (ThermoFisher) and enzyme activity was confirmed using the Omnia kinase assay kit (ThermoFisher).
(§3) Male Wistar rats (9–10 weeks; body weight 300–330 g) were euthanized by intraperitoneal injection of sodium pentobarbitone (200 mg kg^−1) with heparin (500 USP units). […]

[2] = tested on: PKGIα (analogue-sensitive M438G), disulfide-activated; experiment: Chemical genetic phosphoproteomic screen, disulfide-activated PKGIα M438G versus unactivated control; type: biochemical, human PKGIα; substrates in rat heart homogenate; details: n=4
Description: as §1, §2, §3

[3] = PKGIα C42S/M438G + 100 μM cGMP vs basal, 1 h, 30 °C, pH 7.5, rat heart homogenate, label-free LC–MS/MS, * P<0.05 Dunnett: all values except phospholamban S16
[4] = disulfide-activated PKGIα M438G vs basal, 1 h, 30 °C, pH 7.5, rat heart homogenate, label-free LC–MS/MS, * P<0.05 Dunnett: only phospholamban S16

B1: Trifunctional enzyme subunit beta, mitochondrial: PKGIα substrate, phospho site S198 (protein, UniProt Q60587 35-475, looked up)
Trifunctional enzyme subunit …: SAPAVQTKSKKTLAKPNLKNIVVVEGVRIPFLLSGTSYKDLMPHDLARAALSGLLYRTNIPKDVVDYIIFGTVIQEVKTSNVAREAALGAGFSDKTPAHTVTMACISSNQAMTTAVGLIASGQCDVVVAGGVELMSDVPIRHSRNMRKMMLDLNKAKTLAQRLSLLTKFRLNFLSPELPAVAEFSTNETMGHSADRLAAAFAVSRMEQDKYALRSHSLAKKAQDEGHLSDIVPFKVPGKDTVSKDNGIRPSSLEQMAKLKPAFIKPYGTVTAANSSFLTDGASAMLIMSEDRALAMGYKPKAYLRDFIYVSQDPKDQLLLGPTYATPKVLEKAGLTMNDIDAFEFHEAFSGQILANFKAMDSDWFAQNYMGRKTKVGAPPLEKFNIWGGSLSLGHPFGATGCRLVMAAANRLRKDGGQYALVAACAAGGQGHAMIVEAYPK
modifications: phosphorylated at S198
Log2 fold change in phosphorylation, cGMP versus control [1, 3]: 3.44* | Log2 fold change in phosphorylation, Disulfide versus control [2, 4]: 0.04

B2: Myosin light chain kinase 3: PKGIα substrate, phospho site S155 (protein, UniProt E9PT87 1-786, looked up)
Myosin light chain kinase 3: MSGVSEEDPEGLGPQGLPALGGACLVTVDKKLNVLTEKVDRLLHFQEDVTEKLQCVCQGMDHLEQGLHRLEASQELGLAGPGSTSPAAAQAAWPEVLELVRAVRQEGAQHGARLEALFKMVVAVDRAITLVGSTIQNSKVDDFILQGTVPWRKGSLADGPEENKEQAEVAGVKPKHVLNTGSVQAATSRALWEESQKQDTPVGTVEGLPLIIDTSLKGADLTQAGASLRQGVEALDPGQEPPPTEAESRLPALASEDTGTTLELSVAIDRISEVLTSLRMSQSAGEGTSSSKPDCSEPGPQPLGPLTTDSDIHSDEGLPRISVRMREMTTPEELFETQGGSPIGSAEAPGPGTVLEDQIPKGARPFPPLPKRSCNNGGASAEEATGPGAEPIRGPSLVTRDWRDEPVGTTDLQQGRDPGAVSPEPGKDHAAQGPGRTEAGRRVSSAAEAAIVVLDDSAAPPAPFEHRVVSIKDTLISTSYTVSQHEVLGGGRFGQVHRCTERSTGLALAAKIIKVKNIKDREDVKNEINIMNQLSHVNLIQLYDAFESKNSFTLIMEYVDGGELFDRITDEKYHLTELDVVLFTRQICEGVHYLHQHYILHLDLKPENILCVSQTGHQIKIIDFGLARRYKPREKLKVNFGTPEFLAPEVVNYEFVSFPTDMWSVGVITYMLLSGLSPFLGETDAETMNFIVNCSWDFDADTFKGLSEEAKDFVSRLLVKEKSCRMSATQCLKHEWLNHLIAKASGSNVRLRSQLLLQKYMAQRKWKKHFHVVTAVNRLRKFPTCP
modifications: phosphorylated at S155
Log2 fold change in phosphorylation, cGMP versus control [1, 3]: 3.16* | Log2 fold change in phosphorylation, Disulfide versus control [2, 4]: 1.13

B3: Polymerase I and transcript release factor: PKGIα substrate, phospho sites T304 (r27) and S302 (r28) (protein, UniProt P85125 1-392, looked up)
Caveolae-associated protein 1: MEDVTLHIVERPYSGYPDASSEGPEPTPGEARATEEPSGTGSDELIKSDQVNGVLVLSLLDKIIGAVDQIQLTQAQLEERQAEMEGAVQSIQGELSKLGKAHATTSNTVSKLLEKVRKVSVNVKTVRGSLERQAGQIKKLEVNEAELLRRRNFKVMIYQDEVKLPAKLSVSKSLKESEALPEKEGDELGEGERPEEDAAAIELSSDEAVEVEEVIEESRAERIKRSGLRRVDDFKKAFSKEKMEKTKVRTRENLEKTRLKTKENLEKTRHTLEKRMNKLGTRLVPVERREKLKTSRDKLRKSFTPDHVVYARSKTAVYKVPPFTFHVKKIREGEVEVLKATEMVEVGPDDDEVGAERGAETDLLRGSSPDVHTLLEITEESDAVLVDKSDSD
modifications: phosphorylated at T304/S302
Log2 fold change in phosphorylation, cGMP versus control [1, 3]: 3.05* | Log2 fold change in phosphorylation, cGMP versus control ([1]; phospho site S302 (second site of this protein), * P<0.05): 3.16* | Log2 fold change in phosphorylation, Disulfide versus control [2, 4]: 1.30 | Log2 fold change in phosphorylation, Disulfide versus control ([2]; phospho site S302 (second site of this protein), not significant): 1.32

B4: 1-phosphatidylinositol 4,5-bisphosphate phosphodiesterase gamma-1: PKGIα substrate, phospho site S1233 (protein, UniProt P10686 2-1290, looked up)
1-phosphatidylinositol …: AGVGTPCANGCGPSAPSEAEVLHLCRSLEVGTVMTLFYSKKSQRPERKTFQVKLETRQITWSRGADKIEGSIDIREIKEIRPGKTSRDFDRYQEDPAFRPDQSHCFVILYGMEFRLKTLSLQATSEDEVNMWIKGLTWLMEDTLQAATPLQIERWLRKQFYSVDRNREDRISAKDLKNMLSQVNYRVPNMRFLRERLTDFEQRSGDITYGQFAQLYRSLMYSAQKTMDLPFLETNTLRTGERPELCQVSLSEFQQFLLEYQGELWAVDRLQVQEFMLSFLRDPLREIEEPYFFLDELVTFLFSKENSVWNSQLDAVCPETMNNPLSHYWISSSHNTYLTGDQFSSESSLEAYARCLRMGCRCIELDCWDGPDGMPVIYHGHTLTTKIKFSDVLHTIKEHAFVASEYPVILSIEDHCSIAQQRNMAQHFRKVLGDTLLTKPVDIAADGLPSPNQLKRKILIKHKKLAEGSAYEEVPTSVMYSENDISNSIKNGILYLEDPVNHEWYPHYFVLTSSKIYYSEETSSDQGNEDEEEPKEASGSTELHSSEKWFHGKLGAGRDGRHIAERLLTEYCIETGAPDGSFLVRESETFVGDYTLSFWRNGKVQHCRIHSRQDAGTPKFFLTDNLVFDSLYDLITHYQQVPLRCNEFEMRLSEPVPQTNAHESKEWYHASLTRAQAEHMLMRVPRDGAFLVRKRNEPNSYAISFRAEGKIKHCRVQQEGQTVMLGNSEFDSLVDLISYYEKHPLYRKMKLRYPINEEALEKIGTAEPDYGALYEGRNPGFYVEANPMPTFKCAVKALFDYKAQREDELTFTKSAIIQNVEKQDGGWWRGDYGGKKQLWFPSNYVEEMINPAILEPEREHLDENSPLGDLLRGVLDVPACQIAIRPEGKNNRLFVFSISMPSVAQWSLDVAADSQEELQDWVKKIREVAQTADARLTEGKMMERRKKIALELSELVVYCRPVPFDEEKIGTERACYRDMSSFPETKAEKYVNKAKGKKFLQYNRLQLSRIYPKGQRLDSSNYDPLPMWICGSQLVALNFQTPDKPMQMNQALFMAGGHCGYVLQPSTMRDEAFDPFDKSSLRGLEPCVICIEVLGARHLPKNGRGIVCPFVEIEVAGAEYDSTKQKTEFVVDNGLNPVWPAKPFHFQISNPEFAFLRFVVYEEDMFSDQNFLAQATFPVKGLKTGYRAVPLKNNYSEDLELASLLIKIDIFPAKENGDLSPFSGTSLRERASDASSQLFHVRAREGSFEARYQQPFEDFRISQEHLADHFDSRERRAPRRTRVNGDNRL
modifications: phosphorylated at S1233
Log2 fold change in phosphorylation, cGMP versus control [1, 3]: 4.50* | Log2 fold change in phosphorylation, Disulfide versus control [2, 4]: 1.82

B5: Protein NDRG2: PKGIα substrate, phospho site S332 (protein, UniProt Q9QYG0 2-371, looked up)
Protein NDRG2: AELQEVQITEEKPLLPGQTPETAKEAELAARILLDQGQTHSVETPYGSVTFTVYGTPKPKRPAIFTYHDVGLNYKSCFQPLFRFGDMQEIIQNFVRVHVDAPGMEEGAPVFPLGYQYPSLDQLADMIPCILQYLNFSTIIGVGVGAGAYILSRYALNHPDTVEGLVLINIDPNAKGWMDWAAHKLTGLTSSIPDMILGHLFSQEELSGNSELIQKYRGIIQHAPNLENIELYWNSYNNRRDLNFERGGETTLKCPVMLVVGDQAPHEDAVVECNSKLDPTQTSFLKMADSGGQPQLTQPGKLTEAFKYFLQGMGYMASSCMTRLSRSRTASLTSAASIDGSRSRSRTLSQSSESGTLPSGPPGHTMEVSC
modifications: phosphorylated S332
Log2 fold change in phosphorylation, cGMP versus control [1, 3]: 3.42* | Log2 fold change in phosphorylation, Disulfide versus control [2, 4]: 1.91
